Substitutions are numbered along the chain they refer to. Names may count otherwise. No end group written: not given here.

What is called IC50 is the concentration that gives 50% inhibition. Read a low IC50 as higher potency. For orientation: Kd means the free concentration of one partner at which half of the binding sites on the other are occupied at equilibrium, for simple one-to-one binding. Read a low Kd as higher affinity.

Assay [1] concerns the target integrin β1A cytoplasmic tail (β1-CT), recombinant (UniProt P05556). Kind of assay: NMR titration; isotope-labelled β1-CT observed; TLN1-F3 and ΔKIND2 (wild type or K402E / Y13A) added together, ternary complex; 20 mM Tris, 200 mM NaCl, 1 mM DTT, pH 7.5, 298 K.
For assay [2], the target named is ATTO 488-labelled β1-CT (488–β1-CT) (UniProt P05556). Kind of assay: MST; ATTO 488-labelled β-CT peptide (50–200 nM) held constant, one unlabelled protein titrated; 20 mM Tris pH 7.5, 200 mM NaCl, 1 mM TCEP, 0.05% Tween-20; apparent affinities (near-saturation only).
The target of assay [3] is T1, α5-TM lacking the cytoplasmic domain (tailless α5-TM) in nanodiscs (UniProt P11688 993-1025, biotin (biotin-maleimide)).
T1 chain: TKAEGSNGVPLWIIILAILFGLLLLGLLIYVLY
Kind of assay: FACS; 10% PIP2 nanodiscs. Background: In flow cytometry, cells or beads pass a laser one at a time.

Assay [4] has as its target T2, β3 transmembrane and cytoplasmic tail polypeptide (β3-TM–CT) in nanodiscs (UniProt O54890 715-787, biotin (biotin-maleimide)).
T2 chain: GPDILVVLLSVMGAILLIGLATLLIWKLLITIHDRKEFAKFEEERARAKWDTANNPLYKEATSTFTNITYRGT
Kind of assay: FACS; 10% PIP2 nanodiscs.

Assay [5] addresses T3, β1 transmembrane and cytoplasmic tail polypeptide (β1-TM–CT) in nanodiscs (UniProt P05556 726-798, biotin (biotin-maleimide)).
T3 chain: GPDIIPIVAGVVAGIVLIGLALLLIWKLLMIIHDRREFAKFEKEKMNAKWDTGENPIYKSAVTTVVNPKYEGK
Briefly: FACS; 10% PIP2 nanodiscs.

Assay [6] concerns the target T1, α5-TM lacking the cytoplasmic domain …. Briefly: FACS; 10% PIP3 nanodiscs.
Assay [7] has as its target T2, β3 transmembrane and cytoplasmic tail …. Briefly: FACS; 10% PIP3 nanodiscs.
Assay [8] deals with T4, ATTO 488-labelled β3-CT (488–β3-CT) (UniProt O54890 741-787, ATTO 488 at the N terminus).
T4 construct: integrin β3 cytoplasmic tail; source: synthetic peptide (MPIB Core Facility)
T4 peptide (looked up): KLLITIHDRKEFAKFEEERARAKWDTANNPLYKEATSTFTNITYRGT
Kind of assay: MST; as a7, with a second unlabelled protein present at near-saturating concentration (named in the quantity or in the printed words); apparent constants (Kd,app*). The following applies: both partners purified.

Assay [9] concerns the target T5, talin-1 head domain (THD1) (UniProt P26039 1-405).
T5 chain: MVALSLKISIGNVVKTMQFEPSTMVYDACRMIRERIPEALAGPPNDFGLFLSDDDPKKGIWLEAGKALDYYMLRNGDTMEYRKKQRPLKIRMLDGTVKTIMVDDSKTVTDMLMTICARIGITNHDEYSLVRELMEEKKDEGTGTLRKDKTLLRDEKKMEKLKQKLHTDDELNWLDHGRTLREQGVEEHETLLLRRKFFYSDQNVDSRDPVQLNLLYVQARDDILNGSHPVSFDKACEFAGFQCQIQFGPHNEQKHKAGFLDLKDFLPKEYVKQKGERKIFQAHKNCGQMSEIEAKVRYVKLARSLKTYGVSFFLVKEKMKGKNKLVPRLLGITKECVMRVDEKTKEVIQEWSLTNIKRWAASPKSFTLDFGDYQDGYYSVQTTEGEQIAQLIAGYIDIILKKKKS
Briefly: MST.

The target of a further assay is T6, kindlin-2 (KIND2) (UniProt Q8CIB5 1-680).
T6 chain: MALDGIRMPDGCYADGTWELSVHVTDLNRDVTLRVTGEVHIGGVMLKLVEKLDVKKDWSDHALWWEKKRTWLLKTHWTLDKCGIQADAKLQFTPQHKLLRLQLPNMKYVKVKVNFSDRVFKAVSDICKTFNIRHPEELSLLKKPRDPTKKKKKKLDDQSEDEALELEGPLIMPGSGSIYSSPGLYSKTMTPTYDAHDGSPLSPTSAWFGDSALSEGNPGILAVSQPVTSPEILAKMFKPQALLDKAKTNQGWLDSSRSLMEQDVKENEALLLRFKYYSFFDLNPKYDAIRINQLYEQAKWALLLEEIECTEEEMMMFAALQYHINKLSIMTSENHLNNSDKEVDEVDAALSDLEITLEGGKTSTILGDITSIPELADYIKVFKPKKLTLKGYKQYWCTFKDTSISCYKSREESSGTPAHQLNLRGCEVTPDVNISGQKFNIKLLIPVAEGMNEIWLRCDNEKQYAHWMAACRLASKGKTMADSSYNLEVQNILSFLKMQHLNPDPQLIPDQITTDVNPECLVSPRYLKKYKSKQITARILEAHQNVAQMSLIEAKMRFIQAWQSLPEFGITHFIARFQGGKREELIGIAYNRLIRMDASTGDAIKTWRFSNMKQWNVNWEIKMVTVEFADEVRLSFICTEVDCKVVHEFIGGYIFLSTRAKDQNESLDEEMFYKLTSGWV
Briefly: MST.

Assay [10] deals with T3, β1 transmembrane and cytoplasmic tail …. Briefly: FACS; 10% PIP3 nanodiscs.

As for ΔKIND2^Y13A (domain or fragment), in assay [1], the decrease of the signal intensities of the membrane-proximal α-helix of β1-CT (H758–K770), 1:0.8 against 1:0.2, with TLN1-F3 K402E added together is 10% and the decrease of the signal intensities of the membrane-proximal α-helix of β1-CT (H758–K770), 1:0.8 against 1:0.2, with TLN1-F3 added together is 30%.

In the case of TLN1-F3–ΔKIND2^Y13A fusion protein, in assay [2], the Kd of the kindlin contribution (fit of concentrations up to 5 µM) stood at 2.9 µM and the Kd of the talin contribution (fit of concentrations above 5 µM) turned out to be 16 µM.

For “KIND2 lacking the flexible loop in F1 and the PH domain (ΔKIND2) (domain or fragment)”, the decrease of the signal intensities of the membrane-proximal α-helix of β1-CT (H758–K770), 1:0.8 against 1:0.2, with TLN1-F3 added together in assay [1] was 50%.

B1: KIND2^Y13A (natural protein)
chain: T6 chain with Y13A
Turning to B1, the IC50 in [3] amounted to 0.162 µM; in assay [4], 0.219 µM; in assay [5], 0.098 µM; in assay [6], 0.128 µM; in assay [7], 0.173 µM.

B2: kindlin-2 (KIND2) (natural protein, UniProt Q8CIB5 1-680, looked up)
chain: T6 chain
notes: kindlin-2 (KIND2) without the deletions of ΔKIND2; In FC-RDA a copy labelled with Alexa 647 (647–KIND2) was the reporter; also called 647–KIND2; source: E. coli Rosetta, purified (IMAC, SEC); not shown: His10, N-terminal, cleaved; SUMO, N-terminal, cleaved
With B2, in assay [8], the “apparent Kd (Kd,app*) in the presence of THD1” value came to 54 µM, the “apparent Kd (Kd,app*) in the presence of THD1 K402E” value was 16 µM, the “apparent Kd (Kd,app*) in the presence of THD2” value is 27 µM and the “apparent Kd (Kd,app*) in the presence of TLN1-F3” value is 120 µM. Besides, in assay [8], the “apparent Kd (Kd,app*) in the presence of TLN2-F3” value was 47 µM.

B3: KIND2^Y13A (natural protein, UniProt Q8CIB5 1-680, looked up)
chain: T6 chain with Y13A
notes: kindlin-2 (KIND2) with Y13A; In FC-RDA a copy labelled with Alexa 647 was the reporter; also called 647–KIND2^Y13A; source: E. coli Rosetta, purified (IMAC, SEC); not shown: His10, N-terminal, cleaved; SUMO, N-terminal, cleaved
Turning to B3, in [8], the “apparent Kd (Kd,app*) in the presence of THD1” value came out at 21 µM.

B4: ATTO 488-labelled β3-CT^Y772A (peptide)
peptide: {ATTO 488}-KLLITIHDRKEFAKFEEERARAKWDTANNPLAKEATSTFTNITYRGT
Take B4: the Kd in assay [9] is 511 µM; in the assay with kindlin-2 (KIND2), 15.5 µM.

B5: THD1^K402E (domain or fragment)
chain: T5 chain with K402E
With B5, the IC50 in assay [3] worked out at 0.246 µM; in assay [4] it was 0.07 µM; in assay [5] it was 0.131 µM; in assay [6], 0.211 µM; in assay [7], 0.051 µM; in assay [10], 0.054 µM.

B6: talin-1 head domain (THD1) (domain or fragment, UniProt P26039 1-405, looked up)
chain: T5 chain
notes: talin-1 (TLN1) head domain (F0-F3), residues 1-405; In FC-RDA a copy labelled with ATTO 565 (565–THD1) was the reporter; also called 565–THD1; source: E. coli (DE3) Rosetta 2, purified (IMAC, SEC); not shown: His10, N-terminal, cleaved; SUMO, N-terminal, cleaved
With B6, in assay [8], the “apparent Kd (Kd,app*) in the presence of KIND2” value came out at 102 µM and the “apparent Kd (Kd,app*) in the presence of KIND2 Y13A” value was found to be 218 µM.

B7: THD1^K402E (domain or fragment, UniProt P26039 1-405, looked up)
chain: T5 chain with K402E
notes: talin-1 (TLN1) head domain, residues 1-405, with K402E; In FC-RDA a copy labelled with ATTO 565 was the reporter; also called 565–THD1^K402E; source: E. coli (DE3) Rosetta 2, purified (IMAC, SEC); not shown: His10, N-terminal, cleaved; SUMO, N-terminal, cleaved
As to B7, in assay [8], the “apparent Kd (Kd,app*) in the presence of KIND2” value is 76 µM.

Values taken from publication PMC10716038, “Talin and kindlin use integrin tail allostery and direct binding to activate integrins” (Nature Structural & Molecular Biology, 2023).
